This is an account of results in patent US8173771B2, “Humanin receptor or humanin-like polypeptide receptor” (Keio Univeristy, priority 2005, dated 2012).

For assay [1], the system named is primary cortical neurons (PCNs). Briefly: Aβ neurotoxicity in primary cortical neurons, WST-8 / Calcein / LDH. The assay is classed as cell-based, mouse. The method, then: B) PCNs were incubated with 25 μM Aβ (upper) in the presence of 10 μg of recombinant soluble human gp130 (lower “+”) or BSA (lower “−”). Cell viability was determined by WST-8 assay (upper) or Calcein fluorescence assay (lower) at 72 hr after the onset of treatment with Aβ.
C) PCNs were incubated with 25 μM Aβ (1-43) in the presence of 1 μg of neutralizing anti-mouse gp130 antibody (RX435) or control IgG. Cell viability and cell mortality were determined by Calcein fluorescence (left panel) and LDH assays (right panel), respectively, at 72 hr after the onset of treatment with Aβ (1-43).
[…] At 72 hr after incubation, the cells were harvested for WST-8 assays or/and Calcein fluorescence assays to show cell viability.
B) The soluble IL-6 receptor-α (sIL-6R) or the soluble CNTF-R (100 ng/ml) were added to the cells as in the above A), followed by the stimulation with its ligand, IL-6 or CNTF (100 ng/ml), respectively to show the effects on the neuronal cell death due to Aβ. The right and left graphs show the cell viabilities determined by WST-8 assays and Calcein fluorescence assays, respectively.
C) The neutralizing antibodies (1 μg) for the mouse gp130, mouse LIFR, mouse IL-11R and rat CNTF-R were added as in the above A), and cell viability was determined by Calcein fluorescence assays after 72 hours.
WST-8 assay was performed at 72 hrs after the treatment.
The primary culture of mouse cortical neurons was prepared as described previously (Sudo et al., 2000). Briefly, primary cortical neurons, obtained from embryonic day 14 (E14) ICR mice were seeded in poly-L-lysine-coated 96 well plates (Sumitomo Bakelite) at 2.5 or 5.0×10^4 cells/well in Neuron Medium (Sumitomo Bakelite) (Hashimoto et al., 2003; Niikura et al., 2004). Purity of neurons by this method was >98%. After 3 days, the culture medium was replaced with DMEM with N2 supplement. On the fourth day in vitro, 25 μM of Aβ (1-42) was added in association with indicated concentrations of HN or cytokines in the presence or the absence of soluble cytokine receptors or neutralizing antibodies. At 72 hrs after the onset of treatment, cell viability was assessed by WST-8 assay and/or Calcein fluorescence assay and cell mortality was assessed by the Trypan blue exclusion assay and LDH assay (Hashimoto et al, 2000, 2001 a b, 2003).

A further assay deals with T1, PCN cells (Mus musculus, UniProt O70394+O88507).
T1 construct: endogenous in cells; host or cells: mouse primary cortical neurons (PCN), E14 ICR mice
T1 sequence (O70394 25-623): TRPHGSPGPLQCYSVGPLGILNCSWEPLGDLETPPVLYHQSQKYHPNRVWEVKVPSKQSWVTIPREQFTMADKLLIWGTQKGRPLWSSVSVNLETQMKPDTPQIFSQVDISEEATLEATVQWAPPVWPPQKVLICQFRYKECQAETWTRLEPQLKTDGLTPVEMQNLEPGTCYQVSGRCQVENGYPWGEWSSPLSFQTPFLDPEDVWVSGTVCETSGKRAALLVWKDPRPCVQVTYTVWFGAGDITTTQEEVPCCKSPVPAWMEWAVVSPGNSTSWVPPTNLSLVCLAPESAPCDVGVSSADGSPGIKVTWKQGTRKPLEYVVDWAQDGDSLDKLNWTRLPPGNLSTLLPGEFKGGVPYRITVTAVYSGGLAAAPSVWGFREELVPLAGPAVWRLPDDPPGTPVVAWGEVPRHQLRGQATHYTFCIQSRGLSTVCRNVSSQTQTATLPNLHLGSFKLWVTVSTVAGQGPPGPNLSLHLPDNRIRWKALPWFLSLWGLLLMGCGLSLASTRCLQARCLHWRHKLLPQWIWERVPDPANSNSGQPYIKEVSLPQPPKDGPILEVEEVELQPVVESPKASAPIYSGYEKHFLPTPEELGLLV
T1 sequence (O88507 23-342 limits assumed): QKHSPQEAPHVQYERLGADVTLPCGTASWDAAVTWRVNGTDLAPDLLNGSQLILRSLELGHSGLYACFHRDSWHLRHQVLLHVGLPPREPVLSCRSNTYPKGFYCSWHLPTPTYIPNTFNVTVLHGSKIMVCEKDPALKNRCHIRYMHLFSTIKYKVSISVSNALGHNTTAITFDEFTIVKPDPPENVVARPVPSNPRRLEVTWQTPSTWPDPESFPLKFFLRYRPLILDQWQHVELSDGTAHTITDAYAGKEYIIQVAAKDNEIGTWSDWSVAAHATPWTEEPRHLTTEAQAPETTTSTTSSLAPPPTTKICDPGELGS
T1 sequence (Q00560 23-917 partner): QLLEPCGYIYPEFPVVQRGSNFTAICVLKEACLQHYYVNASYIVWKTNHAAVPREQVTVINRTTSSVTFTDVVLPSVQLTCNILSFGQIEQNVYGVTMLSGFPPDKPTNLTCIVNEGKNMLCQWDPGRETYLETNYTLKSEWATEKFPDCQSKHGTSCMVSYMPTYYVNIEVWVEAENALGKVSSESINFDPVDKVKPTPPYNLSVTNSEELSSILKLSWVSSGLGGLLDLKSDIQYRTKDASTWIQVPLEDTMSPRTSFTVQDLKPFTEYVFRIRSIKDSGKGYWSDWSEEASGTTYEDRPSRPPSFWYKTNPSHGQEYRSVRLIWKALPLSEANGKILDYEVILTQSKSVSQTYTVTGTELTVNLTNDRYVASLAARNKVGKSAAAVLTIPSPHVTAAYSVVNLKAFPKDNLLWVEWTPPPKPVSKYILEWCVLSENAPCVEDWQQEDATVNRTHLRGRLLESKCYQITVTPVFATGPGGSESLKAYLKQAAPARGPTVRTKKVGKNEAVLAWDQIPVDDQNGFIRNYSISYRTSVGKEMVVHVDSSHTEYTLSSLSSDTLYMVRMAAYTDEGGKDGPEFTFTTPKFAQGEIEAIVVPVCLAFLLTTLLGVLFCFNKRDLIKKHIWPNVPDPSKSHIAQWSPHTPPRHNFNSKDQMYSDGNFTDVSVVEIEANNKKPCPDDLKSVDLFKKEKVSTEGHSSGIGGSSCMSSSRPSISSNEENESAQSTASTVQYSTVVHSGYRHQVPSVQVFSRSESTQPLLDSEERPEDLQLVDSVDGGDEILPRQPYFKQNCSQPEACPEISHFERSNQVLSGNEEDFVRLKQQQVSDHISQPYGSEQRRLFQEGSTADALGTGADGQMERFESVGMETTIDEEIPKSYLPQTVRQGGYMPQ
Briefly: Immunofluorescence-based binding assay (2) on PCN, competition with unlabeled cytokines. The conditions noted are these: similar range as IL-27; 10 nM biotin-HNG. Here is the method: After 6 hrs incubation, they were fixed with 4% paraformaldehyde in PBS for 30 min. After washing with PBS, cells were stained with FITC-conjugated avidin (Molecularprobe, Eugene, Oreg., USA). Immunofluorescence intensity was measured (excitation=485 nm, emission=535 nm) with a spectrofluorometer (Wallac1420 ARVOsx Multi Label Counter). Immunohistochemical analysis was done with a laser-scanning, confocal microscope LSM (Carl Zeiss, Germany).

B1: IL-6: interleukin-6, recombinant cytokine (protein, UniProt P20607 25-211, looked up)
Interleukin-6: FPTSQVRRGDFTEDTTHNRPVYTTSQVGGLITYVLREILEMRKELCNGNSDCMNSDDALSENNLKLPEIQRNDGCFQTGYNQEICLLKICSGLLEFRFYLEFVKNNLQDNKKDKARVIQSNTETLVHIFKQEIKDSYKIVLPTPTSNALLMEKLESQKEWLRTKTIQLILKALEEFLKVTMRSTRQT
In the case of B1, the “mimicry of HN in neuroprotection against neuronal cell death by Aβ” value in assay [1] (cytokine 100 ng/ml with its soluble receptor (sIL-6R or soluble CNTF receptor) 100 ng/ml) is given as “completely mimicked HN”. For the same molecule, the “inhibition of neurotoxicity by Aβ” value in assay [1] (cytokine alone, physiological levels (up to 100 ng/ml), 25 μM Aβ) is on record as “did not inhibit”. Besides, in the assay with PCN cells, the “inhibition of the binding of HN to PCN” value is reported as “did not show such effect”.
